According to paper PMC6028955:

Target: histone H2A–H2B (from chicken blood histone core octamers) (chicken) (UniProt P02263)
Assay: ITC; 25 °C, 20 mM HEPES pH 7.5, 200 mM NaCl, 1 mM DTT; histones in the cell at 20–30 μM, SSRP1 variants in the syringe at 10 times that concentration

DdSSRP1 containing only the ID1 region (residues 479–527), sequence (Q54G78 479-527): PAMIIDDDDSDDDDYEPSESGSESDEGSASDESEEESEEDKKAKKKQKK
full-length DdSSRP1, sequence (Q54G78 whole entry): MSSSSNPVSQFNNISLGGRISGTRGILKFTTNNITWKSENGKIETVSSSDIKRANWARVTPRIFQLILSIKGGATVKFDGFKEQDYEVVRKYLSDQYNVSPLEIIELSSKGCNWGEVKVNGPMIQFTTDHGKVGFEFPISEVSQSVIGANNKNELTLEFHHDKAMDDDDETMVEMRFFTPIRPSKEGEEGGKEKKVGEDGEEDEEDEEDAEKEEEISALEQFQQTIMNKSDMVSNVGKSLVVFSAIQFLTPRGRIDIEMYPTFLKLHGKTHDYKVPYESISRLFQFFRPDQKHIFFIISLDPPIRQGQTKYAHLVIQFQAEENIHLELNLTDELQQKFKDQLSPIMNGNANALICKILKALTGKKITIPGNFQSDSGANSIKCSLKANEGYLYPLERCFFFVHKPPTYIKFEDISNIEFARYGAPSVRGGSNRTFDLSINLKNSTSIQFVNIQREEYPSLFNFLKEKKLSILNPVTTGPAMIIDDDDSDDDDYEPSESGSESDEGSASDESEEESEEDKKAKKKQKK

Substance | Kd [nM]
DdSSRP1 containing only the ID1 region (residues 479–527) (from UniProt Q54G78 479-527) (domain or fragment) | 190
full-length DdSSRP1 (from UniProt Q54G78 1-527) (natural protein) | 310
